Legend:
[1] = system: CC(=O)SCCNC(=O)CCNC(=O)[C@H](O)C(C)(C)COP(=O)(O)OP(=O)(O)OC[C@H]1O[C@@H](n2cnc3c(N)ncnc32)[C@H](O)[C@@H]1OP(=O)(O)O; assay: Michaelis-Menten kinetics of purified mutant enzyme, DTNB assay of released CoA (KM); assay type: biochemical, Escherichia coli; details: mutation far from the active site
[2] = system: N[C@@H](CO)C(=O)O; assay: Michaelis-Menten kinetics of purified mutant enzyme, DTNB assay (KM); assay type: biochemical, Escherichia coli; details: mutation far from the active site

Substance: serine acetyltransferase (CysE) (Escherichia coli K-12; A33T)
- Km [1]: 5000 ± 2000 µM
- Km [2]: 500 ± 200 µM

Reference: paper PMC7476758, “Underground isoleucine biosynthesis pathways in E. coli” (eLife, 2020)
